# Assay results taken from publication PMC5636944.
# Biological target: K63 diubiquitin (K63 diUb)
# Assay: SPR, p62 immobilised on CM5 chip
"KD (reference: p62S403Pi (monophosphorylated), sites S407)","KD (reference: p62S407Pi (monophosphorylated), sites S403)","KD (reference: recombinant p62 WT, unphosphorylated, sites S403,S407)",Substance
stronger; reference 4.4 ± 0.4 μM,stronger; reference 14.8 ± 1.0 μM,–,p62/SQSTM1 (sequestosome-1) 320-436 (from UniProt Q13501) p62 2Pi (pS403/pS407)
–,–,stronger; reference 167.9 ± 13.0 μM,p62/SQSTM1 (sequestosome-1) 320-436 (from UniProt Q13501) semisynthetic p62 2Pi (pS403/pS407)
